From US20240218070A1 (MERUS N V, published 2024) come the findings set out here.

The target of assay [1] is T1, huFAP-His recombinant protein (R&D Systems cat. #3715-SE) (human, UniProt Q12884 26-760).
T1 construct: Bought His-tagged recombinant protein; also called huFAP protein; human FAP (R&D, cat. No. 3715-SE)
T1 sequence: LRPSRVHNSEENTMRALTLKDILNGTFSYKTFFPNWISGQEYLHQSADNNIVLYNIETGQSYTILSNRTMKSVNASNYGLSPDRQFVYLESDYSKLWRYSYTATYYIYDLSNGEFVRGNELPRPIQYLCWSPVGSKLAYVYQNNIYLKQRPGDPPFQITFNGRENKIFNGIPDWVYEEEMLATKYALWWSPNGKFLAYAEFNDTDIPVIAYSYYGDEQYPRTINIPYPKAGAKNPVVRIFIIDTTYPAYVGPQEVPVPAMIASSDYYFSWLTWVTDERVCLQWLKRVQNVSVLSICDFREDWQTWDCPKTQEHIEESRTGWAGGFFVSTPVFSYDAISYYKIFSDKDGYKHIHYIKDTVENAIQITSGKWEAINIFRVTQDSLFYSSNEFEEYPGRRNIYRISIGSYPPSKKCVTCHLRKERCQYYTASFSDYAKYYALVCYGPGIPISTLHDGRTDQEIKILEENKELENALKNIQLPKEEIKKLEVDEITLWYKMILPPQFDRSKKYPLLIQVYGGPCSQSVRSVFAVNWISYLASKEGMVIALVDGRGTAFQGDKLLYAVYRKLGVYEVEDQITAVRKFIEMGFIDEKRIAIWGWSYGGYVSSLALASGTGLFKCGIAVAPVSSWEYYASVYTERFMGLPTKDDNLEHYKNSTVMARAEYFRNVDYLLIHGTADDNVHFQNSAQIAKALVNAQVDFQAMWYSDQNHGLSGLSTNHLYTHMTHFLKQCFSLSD
Nature of the assay: competition ELISA, huFAP-His coated, IgG at 0.05 ug/ml; competitor sibrotuzumab analog Fab. Here is the method:
ELISA was used to investigate the competitive binding of the human anti-FAP antibody panel with Fab fragments generated from the sibrotuzumab analog to huFAP-His protein (R&D Systems cat. #3715-SE).
The huFAP-His protein was coated (0.5 ug/ml, 50 μl/well) on two 96-wells ELISA plates (Certified Nunc-Immuno Maxisorp F96, Greiner Bio-One, cat. #655061). The plates were sealed (EASYseal, Greiner, cat. #676001) and incubated overnight at 4° ° C. The plates were washed with PBS/0.05% Tween 20 (PBS, Gibco, cat. #10010-015) (Tween 20, Merck, cat. #8.22184.0500) using the ELISA plate washer (BioTek 405 TS). Afterwards, the plates were emptied. Fab fragments of sibrotuzumab analog (25 ug/ml) were incubated on one plate for 30 min at RT, whereas the second plate was incubated with 300 μl/well PBS/2% BSA block buffer (BSA, Sigma, cat. #A3294-500 g) for 1 hour at RT. Afterwards, the plates were emptied. Antibodies from the human anti-FAP panel (0.05 ug/ml, 50 μl/well) were added, plates were covered with a EASYseal, and incubated for one hour at RT. The plates were washed three times with wash buffer using the ELISA washer and emptied. […] The plates were then washed three times with wash buffer using the ELISA washer and emptied. BD OptEIATMB Substrate Reagent Set (BD, cat. #555214) was then added to the wells (50 μl/well) and developed for maximal 10 min. Afterwards, 1 M H2SO4 (50 μl/well) was added to the wells to stop the staining reaction (color changes from blue to yellow). The plates were then measured using an ELISA plate reader (BioTek ELx808).
Background: In an ELISA, binding on a coated surface is turned into a signal by an enzyme label.

Assay [2] deals with human CD26 (huCD26) expressed on 293FF cells (human, UniProt P27487 1-766). Nature of the assay: FACS, 293FF cells transiently transfected with huCD26. On the procedure: The binding of all test and control antibodies to the cells was tested at a single concentration of 2.5 ug/ml. Goat-anti-human IgG F(ab)2-PE (Invitrogen, H10104) was used as secondary antibody (1:100 in FACS buffer). Ab0625 was used at 10 ug/ml and its binding was detected using Ab0250 (Becton Dickinson, 550767) (1:100 in FACS buffer). The FACS buffer containing PBS (Gibco, cat. #10010-015), 0.5% BSA (Thermo Scientific, cat. #37525), and 2 mM EDTA (Invitrogen, cat. #15575-020) was kept ice cold throughout the assay.
The target cells were harvested, counted, and centrifuged for 5 min at 300 g at 4 °C. Cells were then resuspended in FACS buffer at a concentration of 1×10⁶ cells/ml and transferred (200,000 cells/well) to a U-bottom 96-well FACS plate (BD, cat. #353910). Cells were then centrifuged for 3 min at 300 g at 4° C. and supernatant was discarded. 50 μl of primary antibody solutions were added to the cells, mixed, and incubated for 30 min at 2-8° C. in the dark. Cells were washed by adding 150 μl FACS buffer and centrifuged for 3 min at 300 g at 4° C. Supernatant was discarded, and cells were washed again by adding 200 μl FACS buffer to the plate. Cells were then centrifuged for 3 min at 300 g at 4° C. and afterwards the supernatant was discarded. 50 μl of secondary antibody solutions were added to the cells, mixed, and incubated for 30 min at 2-8° C. in the dark. Cells were then washed by adding 150 μl FACS buffer to the plate and centrifuged for 3 min at 300 g at 4° ° C. Supernatant was discarded and cells were washed again by adding 200 μl FACS buffer to the plate and centrifuged for 3 min at 300 g at 4° C. Supernatant was discarded and cells were fixated by adding 100 μl/well ice-cold Fixation buffer (2% formaldehyde solution in PBS, Sigma-Aldrich, cat. #47608-250ML-F). Cells were incubated for 15 min on ice in the dark. Afterwards, 100 μl ice-cold PBS was added to the cells and cells were centrifuged for 3 at 300 g at 4° C. Supernatant was discarded and cells were resuspended in 120 μl FACS buffer.
(In general: In flow cytometry, cells or beads pass a laser one at a time.)

Sequence of human CD26 (huCD26) expressed on 293FF cells (P27487 whole entry): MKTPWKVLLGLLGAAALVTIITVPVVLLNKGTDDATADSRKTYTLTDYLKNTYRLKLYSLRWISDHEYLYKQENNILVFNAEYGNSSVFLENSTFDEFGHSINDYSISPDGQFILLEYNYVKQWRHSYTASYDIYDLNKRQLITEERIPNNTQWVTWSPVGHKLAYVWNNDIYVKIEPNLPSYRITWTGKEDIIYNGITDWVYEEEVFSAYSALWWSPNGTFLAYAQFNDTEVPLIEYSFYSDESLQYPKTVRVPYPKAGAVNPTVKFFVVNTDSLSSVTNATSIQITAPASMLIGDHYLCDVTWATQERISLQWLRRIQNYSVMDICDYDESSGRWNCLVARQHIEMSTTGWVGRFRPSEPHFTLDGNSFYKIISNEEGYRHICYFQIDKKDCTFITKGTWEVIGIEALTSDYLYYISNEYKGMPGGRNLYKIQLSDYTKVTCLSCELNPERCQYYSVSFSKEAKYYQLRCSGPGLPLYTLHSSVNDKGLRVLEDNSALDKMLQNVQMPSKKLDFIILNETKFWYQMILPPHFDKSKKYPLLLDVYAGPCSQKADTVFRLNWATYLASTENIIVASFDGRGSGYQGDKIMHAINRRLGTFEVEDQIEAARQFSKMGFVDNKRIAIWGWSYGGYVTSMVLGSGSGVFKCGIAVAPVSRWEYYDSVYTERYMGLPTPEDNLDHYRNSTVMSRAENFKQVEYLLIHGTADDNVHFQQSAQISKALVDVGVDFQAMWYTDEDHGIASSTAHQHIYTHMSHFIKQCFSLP

B1: anti-human FAP bivalent monospecific IgG comprising heavy chain variable region SEQ ID NO: 11 (antibody, V domains shown)
VH: EVQLVESGGGLVQPGGSLRLSCAASGFTFSSYAMIWVRQAPGKGLEWVSAISGSGGYTFNADSVKGRFTMSRDNSKNTLYLQMNSLRAEDTAVYYCAKRDGGYEGGAFDIWGQGTLVTVSS
VL: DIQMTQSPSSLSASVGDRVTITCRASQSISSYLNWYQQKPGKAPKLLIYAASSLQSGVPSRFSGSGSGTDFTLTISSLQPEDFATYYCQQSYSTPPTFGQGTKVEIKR
notes: IgG1 format, common light chain VK1-39/JK1
In the case of B1, the results for the binding result in assay [1] and in assay [2] were “binds” and “no binding (tested: 2.5 ug/ml)”, respectively.

B2: anti-human FAP bivalent monospecific IgG comprising heavy chain variable region SEQ ID NO: 15 (antibody, V domains shown)
VH: QLQLQESGPGLVKPSETLSLTCTVSGGSISSSSYFWAWIRQPPGKGLEFIGNIYYSGSTYYNPSLKSRVTISVDTSKNQFSLKLSSVTAADTAVYYCARPSYYGSGNYYFAFWGQGTLVTVSS
VL: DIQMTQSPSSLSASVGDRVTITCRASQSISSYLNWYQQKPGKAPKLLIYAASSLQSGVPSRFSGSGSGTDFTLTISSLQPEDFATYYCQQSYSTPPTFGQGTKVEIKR
notes: as for B1
For the molecule B2, the binding result in assay [1] is given as “binds”; in assay [2], “no binding (tested: 2.5 ug/ml)”.

B3: anti-human FAP bivalent monospecific IgG comprising heavy chain variable region SEQ ID NO: 19 (antibody, V domains shown)
VH: EVQLVESGGGLVKPGGSLRLSCAASGFPFNYAWMSWVRQAPGKGLEWVGRIKPKTSGGATDYAAPVKDRFTISRDDSRNTLYLQMNSLKTEDTAVYYCSAREDIWNFFFDLWGQGTLVTVSS
VL: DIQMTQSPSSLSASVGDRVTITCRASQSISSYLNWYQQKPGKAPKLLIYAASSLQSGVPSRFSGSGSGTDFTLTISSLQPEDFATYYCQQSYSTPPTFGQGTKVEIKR
notes: as for B1
For B3, the binding result in assay [1] is reported as “binds”; in assay [2], “no binding (tested: 2.5 ug/ml)”.

B4: anti-human FAP bivalent monospecific IgG comprising heavy chain variable region SEQ ID NO: 69 (antibody, V domains shown)
VH: EVQLVETGGGLIQPGGSLRLSCAASGFTVSSNYMSWVRQAPGKGLEWVSVIYSGGSTYYADSVKGRFTISRDNSKNTLYLQMNSLRAEDTAVYYCARGPTDAYPYLDYLWGQGTLVTVSS
VL: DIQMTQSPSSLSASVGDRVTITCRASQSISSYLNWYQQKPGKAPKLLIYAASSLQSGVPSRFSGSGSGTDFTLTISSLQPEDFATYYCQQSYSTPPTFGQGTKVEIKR
notes: IgG1 format, common light chain VK1-39/JK1; also called human/mouse cross-reactive FAP IgG
Turning to B4, the binding result in assay [2] is “no binding (tested: 2.5 ug/ml)”.
